Consider two molecules from paper PMC10965808, “The alternative coproporphyrinogen III oxidase (CgoN) catalyzes the oxygen-independent conversion of coproporphyrinogen III into coproporphyrin III” (Frontiers in Microbiology, 2024).

One series addresses T1, YtpQ (CgoN) (Priestia megaterium, UniProt D5DN20).
T1 construct: gene BMD_4814; full length, 270 residues; codon-adapted synthetic gene in pGEX-6P-1, N-terminal GST tag cut off with PreScission protease; E. coli BL21(DE3); calculated 30,781 Da; monomer (35 kDa by GPC)
T1 sequence (D5DN20 1-270): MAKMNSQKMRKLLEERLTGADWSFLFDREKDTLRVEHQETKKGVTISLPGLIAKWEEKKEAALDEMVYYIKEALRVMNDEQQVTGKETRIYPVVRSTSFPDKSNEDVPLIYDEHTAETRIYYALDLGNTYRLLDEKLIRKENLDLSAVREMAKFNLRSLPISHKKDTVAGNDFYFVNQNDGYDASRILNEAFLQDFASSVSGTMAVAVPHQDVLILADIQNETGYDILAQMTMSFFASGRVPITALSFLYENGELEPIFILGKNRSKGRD
Put plainly: fluorescence assay, stimulation of activity by added FAD. Type of series: biochemical. As to conditions: 3 μM FAD; 1 μM enzyme; 10 μM coproporphyrinogen III; anaerobic; pH 7.2; 30°C; no menadione.

Substrate in the series “purified protein”: Cc1c2[nH]c(c1CCC(=O)O)Cc1[nH]c(c(CCC(=O)O)c1C)Cc1[nH]c(c(CCC(=O)O)c1C)Cc1[nH]c(c(C)c1CCC(=O)O)C2
Put plainly: purified protein. As to conditions: anaerobic, 3 μM FAD, 5 μM menadione as electron acceptor, 1 μM enzyme, 1-20 μM substrate, HEPES pH 7.2, 0.02% Tween 80, 30°C. In kind it is biochemical, Priestia megaterium.

For the molecule `Cc1cc2nc3c(=O)[nH]c(=O)nc-3n(C[C@H](O)[C@H](O)[C@H](O)COP(=O)(O)OP(=O)(O)OC[C@H]3O[C@@H](n4cnc5c(N)ncnc54)[C@H](O)[C@@H]3O)c2cc1C` [FAD], the “fluorescence assay, stimulation of activity by added FAD” value at YtpQ (CgoN) is given as “FAD was identified as the electron-transferring cofactor of YtpQ”.

B1: YtpQ (CgoN) (Priestia megaterium DSM 319) (protein)
chain: MAKMNSQKMRKLLEERLTGADWSFLFDREKDTLRVEHQETKKGVTISLPGLIAKWEEKKEAALDEMVYYIKEALRVMNDEQQVTGKETRIYPVVRSTSFPDKSNEDVPLIYDEHTAETRIYYALDLGNTYRLLDEKLIRKENLDLSAVREMAKFNLRSLPISHKKDTVAGNDFYFVNQNDGYDASRILNEAFLQDFASSVSGTMAVAVPHQDVLILADIQNETGYDILAQMTMSFFASGRVPITALSFLYENGELEPIFILGKNRSKGRD
notes: full length, 270 residues; codon-adapted synthetic gene in pGEX-6P-1, N-terminal GST tag cut off with PreScission protease; E. coli BL21(DE3); calculated 30,781 Da; monomer (35 kDa by GPC)
With B1, in the series “purified protein”, the Km (commonly the concentration of substrate that gives half-maximal velocity) is 3.95 µM and the kcat (usually the maximal rate divided by the concentration of active sites) was 0.0105 s⁻¹.
